Among the data in PMC9966940 are SOD1 activity of purified SOD1 incubated with purified YWHAE values, retold here.

For this assay, the target named is SOD1-His (not stated (human or mouse cDNA cloned)) (UniProt P00441).
SOD1-His (not stated (human or mouse cDNA cloned)), sequence (P00441 whole entry): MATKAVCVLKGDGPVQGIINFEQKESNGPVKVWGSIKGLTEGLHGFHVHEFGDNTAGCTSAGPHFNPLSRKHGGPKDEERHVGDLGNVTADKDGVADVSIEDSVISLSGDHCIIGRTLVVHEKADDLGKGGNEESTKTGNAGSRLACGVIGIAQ

YWHAE protein purified by His tag from Pichia pastoris, sequence (P62258 whole entry): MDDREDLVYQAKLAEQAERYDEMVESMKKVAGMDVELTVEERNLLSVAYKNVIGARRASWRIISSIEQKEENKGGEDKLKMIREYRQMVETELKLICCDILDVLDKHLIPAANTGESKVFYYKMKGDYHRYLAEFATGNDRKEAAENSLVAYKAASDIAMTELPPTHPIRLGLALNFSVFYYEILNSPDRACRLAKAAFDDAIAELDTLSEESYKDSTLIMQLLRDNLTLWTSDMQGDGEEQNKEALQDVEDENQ

On to “YWHAE protein purified by His tag from Pichia pastoris (from UniProt P62258 1-255) (natural protein)”, for which the SOD1 activity of purified SOD1 incubated with purified YWHAE at 1:1 for 0-15 h at 4 °C in SOD1 activity assay buffer, against SOD1 plus buffer; value at 4 h came to 40%.
